Laboratory results from US20220112244A1 (DOMPE FARMACEUTICI S P A, published 2022).
No end group written: not given here.

The binders below were run against IL-17A (agonist in the IL-17RA/IL17RC dimerization assay) (UniProt Q16552 24-155) (assay: cell-based or functional assay).
Chain of IL-17A (agonist in the IL-17RA/IL17RC dimerization assay) (Q16552 24-155 limits assumed): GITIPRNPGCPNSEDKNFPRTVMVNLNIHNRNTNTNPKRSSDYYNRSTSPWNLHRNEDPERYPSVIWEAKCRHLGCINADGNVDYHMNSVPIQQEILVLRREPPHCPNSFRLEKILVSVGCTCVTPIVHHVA

Ac-IRVTIPADLWDWINK-NH2 [peptide of SEQ ID NO: 162] and Ac-VHFTIPQDWWEWVRR-NH2 [peptide of SEQ ID NO: 146] cannot be ordered by “IC50 in IL-17RA/IL7RC dimerization assay” value: under 10000 nM for the first, under 500 nM for the second.

Ac-VHFQFPQEWYNWFRR-NH2 [peptide of SEQ ID NO: 154] and Ac-VHFQFPADLWNWVRR-NH2 [peptide of SEQ ID NO: 133] cannot be ordered by “IC50 in IL-17RA/IL7RC dimerization assay” value: under 500 nM for the first, under 500 nM for the second.

Ac-VHFQFPQDLWEFVRR-NH2 [peptide of SEQ ID NO: 140] and Ac-VHFTIPQDLYEWVRR-NH2 [peptide of SEQ ID NO: 126] cannot be ordered by “IC50 in IL-17RA/IL7RC dimerization assay” value: under 500 nM for the first, under 500 nM for the second.

Ac-VHFQFPADLWEWFRR-NH2 [peptide of SEQ ID NO: 135] and Ac-IKVTIPADLWDWINK-NH2 [peptide of SEQ ID NO: 163] cannot be ordered by “IC50 in IL-17RA/IL7RC dimerization assay” value: under 500 nM for the first, under 10000 nM for the second.

Ac-VHVTIPAELWEWVRR-NH2 [peptide of SEQ ID NO: 111] and Ac-VHVTIPAEWWEWVRR-NH2 [peptide of SEQ ID NO: 123] cannot be ordered by “IC50 in IL-17RA/IL7RC dimerization assay” value: under 500 nM for the first, under 500 nM for the second.

Ac-VHFTFPQDLWNWVRR-NH2 [peptide of SEQ ID NO: 127] and Ac-VHFTIPADLYNFVRR-NH2 [peptide of SEQ ID NO: 152] cannot be ordered by “IC50 in IL-17RA/IL7RC dimerization assay” value: under 500 nM for the first, under 500 nM for the second.

Ac-PHVTIPADLWDWINK-NH2 [peptide of SEQ ID NO: 161] and Ac-IHVTIPAELWDWINK-NH2 [peptide of SEQ ID NO: 5] cannot be ordered by “IC50 in IL-17RA/IL7RC dimerization assay” value: under 10000 nM for the first, under 100 nM for the second.

Ac-VHFTIPQDLYNWRR-NH2 [peptide of SEQ ID NO: 151] and Ac-VHFTFPQDFWEWVRR-NH2 [peptide of SEQ ID NO: 125] cannot be ordered by “IC50 in IL-17RA/IL7RC dimerization assay” value: under 500 nM for the first, under 500 nM for the second.

Ac-VHVTIPADLYEWVRR-NH2 [peptide of SEQ ID NO: 118] and {N‑acetylglucosamine-N‑acetylmuramic acid}-IMVTIPADLYEWIEE [BIO-3] cannot be ordered by “IC50 in IL-17RA/IL7RC dimerization assay” value: under 500 nM for the first, under 1000 nM for the second.

{N‑acetylmuramic acid}-IMVTIPADLYEWIEE [BIO-1] and Ac-VHFTIPADFWEWFRR-NH2 [peptide of SEQ ID NO: 142] cannot be ordered by “IC50 in IL-17RA/IL7RC dimerization assay” value: under 1000 nM for the first, under 500 nM for the second.

Ac-VHVTIPANLWEWVRR-NH2 [peptide of SEQ ID NO: 116] and {ascorbic acid}-IMVTIPADLYEWIEE [BIO-5] cannot be ordered by “IC50 in IL-17RA/IL7RC dimerization assay” value: under 500 nM for the first, under 1000 nM for the second.

{capric acid}-IMVTIPADLYEWIEE [BIO-4] and Ac-VHVTIPADLYNFFRR-NH2 [peptide of SEQ ID NO: 149] cannot be ordered by “IC50 in IL-17RA/IL7RC dimerization assay” value: under 1000 nM for the first, under 500 nM for the second.

Ac-VHVQIPADFWEWFRR-NH2 [peptide of SEQ ID NO: 143] and Ac-VHFQIPQDWWEWVRR-NH2 [peptide of SEQ ID NO: 137] cannot be ordered by “IC50 in IL-17RA/IL7RC dimerization assay” value: under 500 nM for the first, under 500 nM for the second.

Ac-AHVTIPADLWDWINK-NH2 [peptide of SEQ ID NO: 158] and IMVTIPADLYEWIEEQ-{N‑acetylglucosamine} [BIO-2] cannot be ordered by “IC50 in IL-17RA/IL7RC dimerization assay” value: under 10000 nM for the first, under 1000 nM for the second.

Ac-VPGAGVPGAGIHVTIPA-NH2 [peptide of SEQ ID NO: 157] and Ac-VHFTFPQDLWEWVRR-NH2 [peptide of SEQ ID NO: 124] cannot be ordered by “IC50 in IL-17RA/IL7RC dimerization assay” value: under 500 nM for the first, under 500 nM for the second.

Ac-VHFQFPQDWWNWVRR-NH2 [peptide of SEQ ID NO: 139] and Ac-VHVTFPADLWEWFRR-NH2 [peptide of SEQ ID NO: 144] cannot be ordered by “IC50 in IL-17RA/IL7RC dimerization assay” value: under 500 nM for the first, under 500 nM for the second.

Ac-VHFQFPADLWEFVRR-NH2 [peptide of SEQ ID NO: 134] and Ac-VHFTFPQDLYNFVRR-NH2 [peptide of SEQ ID NO: 148] cannot be ordered by “IC50 in IL-17RA/IL7RC dimerization assay” value: under 500 nM for the first, under 500 nM for the second.

Ac-VHVQIPADLWEWVRR-NH2 [peptide of SEQ ID NO: 113] and Ac-VHVTIPQDFWEWFRR-NH2 [peptide of SEQ ID NO: 145] cannot be ordered by “IC50 in IL-17RA/IL7RC dimerization assay” value: under 500 nM for the first, under 500 nM for the second.

Ac-VHVTIPADFWEWVRR-NH2 [peptide of SEQ ID NO: 117] and Ac-VHFQFPQDLWEWVRR-NH2 [peptide of SEQ ID NO: 150] cannot be ordered by “IC50 in IL-17RA/IL7RC dimerization assay” value: under 500 nM for the first, under 500 nM for the second.

Ac-VHFQFPQDWWEWFRR-NH2 [peptide of SEQ ID NO: 141] and Ac-VHFTIPADLWEWVRR-NH2 [peptide of SEQ ID NO: 112] cannot be ordered by “IC50 in IL-17RA/IL7RC dimerization assay” value: under 500 nM for the first, under 500 nM for the second.

Ac-VHVTIPADLWEWFRR-NH2 [peptide of SEQ ID NO: 121] and Ac-LHVTIPADLWDWINK-NH2 [peptide of SEQ ID NO: 160] cannot be ordered by “IC50 in IL-17RA/IL7RC dimerization assay” value: under 500 nM for the first, under 10000 nM for the second.

Ac-VRFQFGQEWYNFFRR-NH2 [peptide of SEQ ID NO: 155] and Ac-VHVYIPAELWEWVRR-NH2 [peptide of SEQ ID NO: 122] cannot be ordered by “IC50 in IL-17RA/IL7RC dimerization assay” value: under 500 nM for the first, under 500 nM for the second.

Ac-VHVTIPQDLWEWVRR-NH2 [peptide of SEQ ID NO: 115] and Ac-IHVTIPADLWDWIRK-NH2 [peptide of SEQ ID NO: 9] cannot be ordered by “IC50 in IL-17RA/IL7RC dimerization assay” value: under 500 nM for the first, under 300 nM for the second.

Ac-VHFTFPQDLYNWVRR-NH2 [peptide of SEQ ID NO: 147] and Ac-VPGAGVPGAGIHVTI-NH2 [peptide of SEQ ID NO: 156] cannot be ordered by “IC50 in IL-17RA/IL7RC dimerization assay” value: under 500 nM for the first, under 500 nM for the second.

Ac-VHFTFPQDLWEWFRR-NH2 [peptide of SEQ ID NO: 129] and Ac-IHVTIPADLYDWINK-NH2 [peptide of SEQ ID NO: 6] cannot be ordered by “IC50 in IL-17RA/IL7RC dimerization assay” value: under 500 nM for the first, under 400 nM for the second.

Ac-VHFQFPADLWEWVRR-NH2 [peptide of SEQ ID NO: 130] and Ac-VHFQIPQDLYNFFRR-NH2 [peptide of SEQ ID NO: 153] cannot be ordered by “IC50 in IL-17RA/IL7RC dimerization assay” value: under 500 nM for the first, under 500 nM for the second.

Ac-VHVTFPADLWEWVRR-NH2 [peptide of SEQ ID NO: 114] and Ac-VHVTIPADLWNWVRR-NH2 [peptide of SEQ ID NO: 119] cannot be ordered by “IC50 in IL-17RA/IL7RC dimerization assay” value: under 500 nM for the first, under 500 nM for the second.

Ac-VHVTIPADLWEFVRR-NH2 [peptide of SEQ ID NO: 120] and Ac-GHVTIPADLWDWINK-NH2 [peptide of SEQ ID NO: 159] cannot be ordered by “IC50 in IL-17RA/IL7RC dimerization assay” value: under 500 nM for the first, under 10000 nM for the second.

For Ac-VHFTFPQDLWEFVRR-NH2 [peptide of SEQ ID NO: 128], the “IC50 in IL-17RA/IL7RC dimerization assay” value was under 500 nM.
